Experimental data reported in patent US20140378382A1 (WISCONSIN ALUMNI RESEARCH FOUNDATION, published 2014).
Read-outs that look alike come from different tables or passages of the source. Non-standard residues stand in square brackets, D forms with d. Primed or numbered codes have the meaning given here. No end group written: not given here. APC = aminopyrrolidine carboxylic acid (2-aminopyrrolidine-4-carboxylic acid); ACPC″ = 2-aminocyclopentane carboxylic acid (X); ACPC = 2-aminocyclopentane carboxylic acid; β3hW = N[C@H](CC(=O)O)Cc1c[nH]c2ccccc12; hArg = N=C(N)NCCCC[C@H](N)C(=O)O; β3hE = N[C@@H](CCC(=O)O)CC(=O)O; β3hF = N[C@H](CC(=O)O)Cc1ccccc1; β3hL = CC(C)C[C@H](N)CC(=O)O; β3hK = NCCCC[C@H](N)CC(=O)O; β3hM = CSCC[C@H](N)CC(=O)O; β3hD = NC(CC(=O)O)CC(=O)O; β3hS = N[C@@H](CO)CC(=O)O; Aib = CC(C)(N)C(=O)O

Tests used:
Experiment in all cases: cell-based or functional assay
[1] = target: T1, rat parathyroid hormone receptor 1, wild-type (rPTHR-1) (rat, UniProt P25961 27-591)
T1 sequence (looked up): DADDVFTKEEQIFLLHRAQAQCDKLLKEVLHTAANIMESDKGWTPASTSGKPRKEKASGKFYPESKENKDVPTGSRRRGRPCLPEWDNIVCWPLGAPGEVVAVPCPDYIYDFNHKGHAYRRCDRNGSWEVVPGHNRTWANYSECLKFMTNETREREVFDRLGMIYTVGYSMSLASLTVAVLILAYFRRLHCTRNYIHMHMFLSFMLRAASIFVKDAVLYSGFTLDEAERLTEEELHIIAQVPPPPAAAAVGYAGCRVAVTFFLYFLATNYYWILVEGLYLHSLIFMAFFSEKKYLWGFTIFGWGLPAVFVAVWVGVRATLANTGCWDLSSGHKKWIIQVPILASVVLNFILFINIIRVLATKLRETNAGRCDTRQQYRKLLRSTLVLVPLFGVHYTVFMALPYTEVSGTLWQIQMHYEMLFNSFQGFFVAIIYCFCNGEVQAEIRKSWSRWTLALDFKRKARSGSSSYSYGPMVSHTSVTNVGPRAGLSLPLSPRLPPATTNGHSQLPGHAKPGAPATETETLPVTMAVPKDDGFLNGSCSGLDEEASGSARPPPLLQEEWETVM

[2] = target: T2, delNT PTHR1 (human, UniProt Q03431 27-593)
T2 sequence (looked up): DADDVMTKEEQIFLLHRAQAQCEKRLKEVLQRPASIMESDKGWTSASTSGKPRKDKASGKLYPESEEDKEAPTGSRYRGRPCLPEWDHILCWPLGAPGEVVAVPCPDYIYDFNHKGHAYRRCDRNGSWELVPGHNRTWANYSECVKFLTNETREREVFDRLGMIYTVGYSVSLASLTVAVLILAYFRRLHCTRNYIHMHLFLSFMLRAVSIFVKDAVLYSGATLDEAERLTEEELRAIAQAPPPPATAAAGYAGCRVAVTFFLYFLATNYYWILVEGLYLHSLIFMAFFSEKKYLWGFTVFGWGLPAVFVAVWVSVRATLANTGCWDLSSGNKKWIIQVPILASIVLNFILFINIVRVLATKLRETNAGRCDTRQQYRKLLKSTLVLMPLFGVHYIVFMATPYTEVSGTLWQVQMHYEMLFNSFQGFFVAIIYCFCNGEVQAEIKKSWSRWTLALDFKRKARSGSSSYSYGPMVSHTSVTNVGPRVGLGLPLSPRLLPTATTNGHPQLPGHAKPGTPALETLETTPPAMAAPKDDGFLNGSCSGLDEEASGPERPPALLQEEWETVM

[3] = target: T3, PTHR-1 (species and cells not stated for the assay) (Homo sapiens (Human), UniProt Q03431 27-593)
T3 sequence: T2 sequence (looked up)

[4] = target: T3, PTHR-1 (species and cells not stated …); remark: listed apart in the source

B1: C5 (peptide)
peptide: SVSEIQLMHNLGKHLNSMERVEWLRKKLQDVHNF-NH2
modifications: also: five β3 residues, αααβ pattern, positions not given here
Question: For B1, which “cAMP Max” value [1] is on record?
Answer: 48 cps × 10-3

B2: D5 (peptide)
peptide: SVSEIQLMHNLGKHLNSMERVEWLRKKLQDVHNF-NH2
modifications: also: five β3 residues, αααβ pattern, positions not given here
Question: For B2, which “cAMP Max” value [1] is on record?
Answer: 43 cps × 10-3

B3: β3Ser(3) PTH(1-34) (peptide)
peptide: SV[β3hS]EIQLMHNLGKHLNSMERVEWLRKKLQDVHNF-NH2
Question: How did the “cAMP EC50” value [2] turn out when B3 was run?
Answer: 340000 nM

B4: β3Glu(4) PTH(1-34) (peptide)
peptide: SVS[β3hE]IQLMHNLGKHLNSMERVEWLRKKLQDVHNF-NH2
Question: Which “cAMP EC50” value [2] does the source give for B4 here?
Answer: 15000 nM

B5: ACPC(4) PTH(1-34) (peptide)
peptide: SVS[ACPC]IQLMHNLGKHLNSMERVEWLRKKLQDVHNF-NH2
Question: Which results are given for B5?
Answer: Fold PTH [2]: 510 fold; cAMP EC50 [2]: 32000 nM

B6: β3Leu(7) PTH(1-34) (peptide)
peptide: SVSEIQ[β3hL]MHNLGKHLNSMERVEWLRKKLQDVHNF-NH2
Question: With B6 as the binder, how does the “cAMP EC50” value [2] read?
Answer: 67000 nM

B7: β3Met(8) PTH(1-34) (peptide)
peptide: SVSEIQL[β3hM]HNLGKHLNSMERVEWLRKKLQDVHNF-NH2
Question: For B7, which “cAMP EC50” value [2] is on record?
Answer: 20000 nM

B8: APC(9) PTH(1-34) (peptide)
peptide: SVSEIQLMZNLGKHLNSMERVEWLRKKLQDVHNF
modifications: APC (Z) at 9; C-terminal amide
Question: B8 was tested. Which “Fold PTH” value [2] did it give?
Answer: 87 fold

Question: What about the “cAMP EC50” value [2] of the same binder?
Answer: 5400 nM

B9: ACPC(1,7) (peptide)
peptide: [ACPC]VSEIQ[ACPC]MHNLGKHLNSMERVEWLRKKLQDVHNF-NH2
Question: With B9 as the binder, how does the “Fold PTH” value [3] read?
Answer: 1.7 fold

Question: What about the “cAMP EC50” value [3] of the same binder?
Answer: 0.14 nM

B10: D6_ACPC(1,7) (peptide)
peptide: [ACPC]VSEIQ[ACPC]MHNLGKWLNSMERVEWLRKKLQDVHNF-NH2
modifications: not fully specified; printed as XVSEIQXMHNLGKWLNSMERVEWLRKKLQDVHNF-NH2; also: D6 β3 residues, positions not shown (marking lost)
Question: How did the “Fold PTH” value [3] turn out when B10 was run?
Answer: 22.6 fold

Question: And the “cAMP EC50” value [3]?
Answer: 1.84 nM

B11: D6_ACPC(1,5,7) (peptide)
peptide: [ACPC]VSE[ACPC]Q[ACPC]MHNLGKWLNSMERVEWLRKKLQDVHNF-NH2
modifications: not fully specified; printed as XVSEXQXMHNLGKWLNSMERVEWLRKKLQDVHNF-NH2; also: D6 β3 residues, positions not shown (marking lost)
Question: Which results are given for B11?
Answer: Fold PTH [3]: 2040 fold; cAMP EC50 [3]: 167 nM

B12: cycD6 (peptide)
peptide: SVSEIQLMHNLGK[ACPC″]LNS[ACPC″]ERV[β3hE]WLR[APC]KLQ[β3hD]VHN[ACPC″]-NH2
modifications: also: β3 residues (bold, underlined) not marked in the text
Question: For B12, which “Fold PTH” value [3] is on record?
Answer: 1.3 fold

Question: And the “cAMP EC50” value [3]?
Answer: 0.1 nM

B13: FcycD6 (peptide)
peptide: SVSEIQLMHNLGK[ACPC]LNS[ACPC]ERV[APC]WLR[APC]KLQ[ACPC]VHN[ACPC]-NH2
modifications: not fully specified; printed as SVSEIQLMHNLGKXLNSXERVZWLRZKLQXVHNX-NH2
Question: Which results are given for B13?
Answer: Fold PTH [3]: 3.2 fold; cAMP EC50 [3]: 0.26 nM

B14: CycD6_ACPC(1,7) (peptide)
peptide: [ACPC]VSEIQ[ACPC]MHNLGK[ACPC]LNS[ACPC]ERVEWLR[APC]KLQDVHN[ACPC]-NH2
modifications: not fully specified; printed as XVSEIQXMHNLGKXLNSXERVEWLRZKLQDVHNX-NH2; also: further β3 residues, positions not shown (marking lost)
Question: Which results are given for B14?
Answer: Fold PTH [3]: 7.3 fold; cAMP EC50 [3]: 0.59 nM

B15: FcycD6_ACPC(1,7) (peptide)
peptide: [ACPC″]VSEIQ[ACPC″]MHNLGK[ACPC″]LNS[ACPC″]ERV[APC]WLR[APC]KLQ[ACPC″]VHN[ACPC″]-NH2
Question: B15 was tested. Which “Fold PTH” value [3] did it give?
Answer: 8.7 fold

Question: What about the “cAMP EC50” value [3] of the same binder?
Answer: 0.71 nM

B16: CycD6_ACPC(1,5,7) (peptide)
peptide: [ACPC]VSE[ACPC]Q[ACPC]MHNLGK[ACPC]LNS[ACPC]ERVEWLR[APC]KLQDVHN[ACPC]-NH2
modifications: not fully specified; printed as XVSEXQXMHNLGKXLNSXERVEWLRZKLQDVHNX-NH2; also: further β3 residues, positions not shown (marking lost)
Question: Which “Fold PTH” value [3] does the source give for B16 here?
Answer: 266 fold

Question: What about the “cAMP EC50” value [3] of the same binder?
Answer: 21.7 nM

B17: M-ACPC(1,7) (peptide)
peptide: [ACPC″]V[Aib]EIQ[ACPC″]MHQ[hArg]AKWLNSMRRVEWLRKKLQDVHNF-NH2
Question: Which results are given for B17?
Answer: Fold PTH [4]: 6.3 fold; cAMP EC50 [4]: 0.52 nM

B18: M-ACPC(1,5,7) (peptide)
peptide: [ACPC″]V[Aib]E[ACPC″]Q[ACPC″]MHQ[hArg]AKWLNSMRRVEWLRKKLQDVHNF-NH2
Question: With B18 as the binder, how does the “Fold PTH” value [4] read?
Answer: 4.9 fold

Question: What about the “cAMP EC50” value [4] of the same binder?
Answer: 0.4 nM

B19: M-D6 (peptide)
peptide: AVAEIQ[ACPC″]MHQ[hArg]AKWLNSMRRVEWLRKKLQDVHNF-NH2
modifications: not fully specified (residues 14, 18, 22, 26, 30, 34)
Question: With B19 as the binder, how does the “Fold PTH” value [4] read?
Answer: 5.4 fold

Question: And the “cAMP EC50” value [4]?
Answer: 0.44 nM

B20: M-FcycD6 (peptide)
peptide: AVAEIQ[ACPC″]MHQ[hArg]AK[ACPC″]LNS[ACPC″]RRV[APC]WLR[APC]KLQ[ACPC″]VHN[ACPC″]-NH2
Question: What does the source list for B20?
Answer: Fold PTH [4]: 6.3 fold; cAMP EC50 [4]: 0.51 nM

B21: M-D6_ACPC(1,7) (peptide)
peptide: [ACPC″]V[Aib]EIQ[ACPC″]MHQ[hArg]AK[β3hW]LNS[β3hM]RRV[β3hE]WLR[β3hK]KLQ[β3hD]VHN[β3hF]-NH2
modifications: also: β3 residues (bold, underlined) not marked in the text
Question: With B21 as the binder, how does the “Fold PTH” value [4] read?
Answer: 10.2 fold

Question: And the “cAMP EC50” value [4]?
Answer: 0.83 nM

B22: M-FcycD6_ACPC(1,7) (peptide)
peptide: [ACPC″]V[Aib]EIQ[ACPC″]MHQ[hArg]AK[ACPC″]LNS[ACPC″]RRV[APC]WLR[APC]KLQ[ACPC″]VHN[ACPC″]-NH2
Question: What does the source list for B22?
Answer: Fold PTH [4]: 21.8 fold; cAMP EC50 [4]: 1.77 nM

B23: M-X1,5,7-D6 (peptide)
peptide: [ACPC″]V[Aib]E[ACPC″]Q[ACPC″]MHQ[hArg]AK[β3hW]LNS[β3hM]RRV[β3hE]WLR[β3hK]KLQ[β3hD]VHN[β3hF]-NH2
modifications: also: β3 residues (bold, underlined) not marked in the text
Question: Which “Fold PTH” value [4] does the source give for B23 here?
Answer: 9.7 fold

Question: And the “cAMP EC50” value [4]?
Answer: 0.79 nM

B24: C3 (peptide)
peptide: SVSEIQLMHNLGKHLNSMERVEWLRKKLQDVHNF-NH2
modifications: also: three β3 residues, αααβ pattern, positions not given here
Question: Which “cAMP Max” value [1] does the source give for B24 here?
Answer: 68 cps × 10-3

B25: D3 (peptide)
peptide: SVSEIQLMHNLGKHLNSMERVEWLRKKLQDVHNF-NH2
modifications: also: three β3 residues, αααβ pattern, positions not given here
Question: How did the “cAMP Max” value [1] turn out when B25 was run?
Answer: 65 cps × 10-3

B26: A5 (peptide)
peptide: SVSEIQLMHNLGKHLNSMERVEWLRKKLQDVHNF-NH2
modifications: not fully specified (residue 19)
Question: Which “cAMP Max” value [1] does the source give for B26 here?
Answer: 54 cps × 10-3
